± gives the standard deviation of the averaged measurements.
How the values were obtained:
Saccharomyces cerevisiae [1] = assay: protein stability index of tFT-peptide fusion (C-terminal peptide) (PSI (0-1 scale)); higher = more stable (slower turnover)
Procedure: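 MPS profiling in S. cerevisiae of the tFT-X12 degron library: putative degron peptides plus stable controls, 12 aa, fused to the C-terminus of a sfGFP-mCherry timer. Cells are FACS-sorted into 8 mCherry/sfGFP bins and deep-sequenced. PSI runs from 0 (unstable) to 1 (stable). Backgrounds are wild type, das1Δ and doa10Δ at 30 °C, and wild type, das1Δ, cdc34-1 and cdc53-1 at 37 °C; 2-3 technical replicates each.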

Saccharomyces cerevisiae [2] = assay: as above; conditions: genetic background: wild type; temperature: 30 C
[3] = genetic background: cdc34-1, temperature: 37 C
[4] = genetic background: cdc53-1, temperature: 37 C
[5] = genetic background: das1 deletion, temperature: 30 C
[6] = genetic background: das1 deletion, temperature: 37 C
[7] = genetic background: doa10 deletion, temperature: 30 C
[8] = genetic background: wild type, temperature: 30 C
[9] = genetic background: wild type, temperature: 37 C
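Note: PSI is a weighted mean of sequencing reads over stability bins, variants kept only with over 10 reads, mCherry proximal and sfGFP distal, peptide attached via GGGS linker.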

Row | Sequence | protein stability index (Saccharomyces cerevisiae [1]; [3]) | protein stability index (Saccharomyces cerevisiae [1]; [4]) | protein stability index (Saccharomyces cerevisiae [1]; [5]) | protein stability index (Saccharomyces cerevisiae [1]; [6]) | protein stability index (Saccharomyces cerevisiae [1]; [7]) | protein stability index (Saccharomyces cerevisiae [1]; [8]) | protein stability index (Saccharomyces cerevisiae [1]; [9]) | protein stability index (Saccharomyces cerevisiae [2])
1 | SFSRLWSLFRCL | 0.462 ± 0.041 | 0.68 ± 0.026 | 0.682 ± 0.014 | 0.752 ± 0.014 | 0.15 ± 0.0057 | 0.13 ± 0.036 | 0.31 ± 0.038 | 0.244 ± 0.00058
2 | SFVCFSYYIVNI | 0.453 ± 0.021 | 0.482 ± 0.005 | 0.377 ± 0.021 | 0.564 ± 0.022 | 0.381 ± 0.023 | 0.363 ± 0.027 | 0.548 ± 0.049 | 0.51 ± 0.03
3 | SFVLLSSFLVFV | 0.249 ± 0.016 | 0.272 ± 0.042 | 0.262 ± 0.02 | 0.39553 ± 9.9e-06 | 0.275 ± 0.0036 | 0.241 ± 0.014 | 0.355 ± 0.0082 | 0.323 ± 0.013
4 | SGFLNVGYLWVC | 0.5625 ± 0.00014 | 0.635 ± 0.0083 | 0.482 ± 0.025 | 0.644 ± 0.017 | 0.149 ± 0.012 | 0.175 ± 0.02 | 0.308 ± 0.02 | 0.239 ± 0.069
5 | SIFLCRLQNLLI | 0.637 ± 0.0071 | 0.742 ± 0.023 | 0.632 ± 0.0083 | 0.734 ± 0.018 | 0.19 ± 0.017 | 0.209 ± 0.035 | 0.407 ± 0.0057 | 0.389 ± 0.077
6 | SILVSIFILAMQ | 0.205 ± 0.029 | 0.311 ± 0.0043 | 0.229 ± 0.043 | 0.412 ± 0.0063 | 0.199 ± 0.008 | 0.219 ± 0.048 | 0.355 ± 0.015 | 0.189 ± 0.019
7 | SIRVIVAVRNIS | 0.621 ± 0.033 | 0.648 ± 0.041 | 0.554 ± 0.023 | 0.663 ± 0.0092 | 0.21 ± 0.015 | 0.239 ± 0.038 | 0.4346 ± 0.0024 | 0.431 ± 0.052
8 | SISVQCSMLRVL | 0.456 ± 0.036 | 0.47 ± 0.0037 | 0.389 ± 0.048 | 0.482 ± 0.0086 | 0.303 ± 0.02 | 0.294 ± 0.018 | 0.387 ± 0.038 | 0.331 ± 0.0089
9 | SLARLRRICFNT | 0.632 ± 0.042 | 0.685 ± 0.0072 | 0.648 ± 0.031 | 0.719 ± 0.023 | 0.254 ± 0.011 | 0.27 ± 0.042 | 0.469 ± 0.021 | 0.3604 ± 0.0024
10 | SLRPFFPPLPRP | 0.631 ± 0.06 | 0.729 ± 0.0088 | 0.69 ± 0.033 | 0.7305 ± 0.0014 | 0.723 ± 0.026 | 0.702 ± 0.031 | 0.7187 ± 0.0031 | 0.666 ± 0.28
11 | SLVPSIFLFRIF | 0.566 ± 0.042 | 0.613 ± 0.0084 | 0.544 ± 0.028 | 0.682 ± 0.0094 | 0.323 ± 0.0096 | 0.307 ± 0.022 | 0.467 ± 0.014 | 0.4516 ± 0.0032
12 | SLVVMGSLWLRI | 0.275 ± 0.15 | 0.162 ± 0.093 | 0.346 ± 0.081 | 0.463 ± 0.024 | 0.468 ± 0.052 | 0.314 ± 0.077 | 0.425 ± 0.07 | 0.415 ± 0.0096
13 | SMGVLITYLVQV | 0.399 ± 0.021 | 0.461 ± 0.012 | 0.324 ± 0.024 | 0.51 ± 0.015 | 0.25 ± 0.007 | 0.288 ± 0.033 | 0.452 ± 0.0061 | 0.45 ± 0.04
14 | SMPWFWFVRGIG | 0.497 ± 0.041 | 0.531 ± 0.0014 | 0.5 ± 0.017 | 0.557 ± 0.0094 | 0.438 ± 0.032 | 0.417 ± 0.013 | 0.5186 ± 0.0039 | 0.461 ± 0.0082
15 | SNFDVRRLLVIQ | 0.616 ± 0.073 | 0.702 ± 0.038 | 0.588 ± 0.021 | 0.697 ± 0.0065 | 0.29 ± 0.0061 | 0.329 ± 0.039 | 0.54 ± 0.014 | 0.455 ± 0.033
16 | SPSTPQALSNFS | 0.679 ± 0.0097 | 0.748 ± 0.015 | 0.657 ± 0.032 | 0.7376 ± 0.0054 | 0.664 ± 0.022 | 0.663 ± 0.025 | 0.715 ± 0.027 | 0.715 ± 0.038
17 | SPTIFLPLFLTS | 0.426 ± 0.026 | 0.415 ± 0.014 | 0.397 ± 0.028 | 0.522 ± 0.016 | 0.621 ± 0.016 | 0.4 ± 0.029 | 0.468 ± 0.0067 | 0.376 ± 0.037
18 | SRARIRLPRILS | 0.648 ± 0.033 | 0.71 ± 0.0083 | 0.661 ± 0.026 | 0.72403 ± 0.00037 | 0.208 ± 0.0047 | 0.225 ± 0.052 | 0.494 ± 0.015 | 0.333 ± 0.024
19 | SSLTFTFAILLY | 0.19 ± 0.026 | 0.188 ± 0.011 | 0.207 ± 0.025 | 0.339 ± 0.015 | 0.369 ± 0.018 | 0.219 ± 0.025 | 0.312 ± 0.052 | 0.339 ± 0.011

Source: the supplement of paper PMC10724198
